B1: TRIM43 (parent)
chain: RAQMIRNEYRKLHPVLHKEEKQHL

Variants of: B1
Assay: protein stability index of a GFP-peptide fusion (GPS, HEK-293T) (PSI 1-6); higher = more stable
Details: c terminus: a fixed tail appended
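Further: lentivirally expressed fusions sorted by FACS into six bins by GFP to DsRed ratio, PSI derived from sequencing read proportions per bin multiplied by bin number.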

Variant	protein stability index
RAQMIHNEYRKLHPVLHKEEKQHL [R6H]	3.54
RAQMIMNEYRKLHPVLHKEEKQHL [R6M]	2.19
RAQMIGNEYRKLHPVLHKEEKQHL [R6G]	3.96
RAQMIDNEYRKLHPVLHKEEKQHL [R6D]	4.3
RAQMINNEYRKLHPVLHKEEKQHL [R6N]	4.15
RAQMIYNEYRKLHPVLHKEEKQHL [R6Y]	2.57
RAQMIVNEYRKLHPVLHKEEKQHL [R6V]	3.52
RAQMIPNEYRKLHPVLHKEEKQHL [R6P]	3.57
RAQMILNEYRKLHPVLHKEEKQHL [R6L]	2.15
RAQMISNEYRKLHPVLHKEEKQHL [R6S]	3.52
RAQMIQNEYRKLHPVLHKEEKQHL [R6Q]	3.63
RAQMIINEYRKLHPVLHKEEKQHL [R6I]	1.89
RAQMITNEYRKLHPVLHKEEKQHL [R6T]	3.89
RAQMICNEYRKLHPVLHKEEKQHL [R6C]	3.67
RAQMIANEYRKLHPVLHKEEKQHL [R6A]	3.07
RAQMIKNEYRKLHPVLHKEEKQHL [R6K]	3.39
RAQMIWNEYRKLHPVLHKEEKQHL [R6W]	1.77
RAQMIFNEYRKLHPVLHKEEKQHL [R6F]	2.44
RAQMIRNEYRVLHPVLHKEEKQHL [K11V]	3.4
RAQMIRNEYRTLHPVLHKEEKQHL [K11T]	3.42
RAQMIRNEYRWLHPVLHKEEKQHL [K11W]	3.14
RAQMIRNEYRFLHPVLHKEEKQHL [K11F]	3.24
RAQMIRNEYRHLHPVLHKEEKQHL [K11H]	3.94
RAQMIRNEYRGLHPVLHKEEKQHL [K11G]	3.76

Variant	protein stability index
RAQMIRNEYRRLHPVLHKEEKQHL [K11R]	3.4
RAQMIRNEYRCLHPVLHKEEKQHL [K11C]	2.79
RAQMIRNEYRSLHPVLHKEEKQHL [K11S]	2.96
RAQMIRNEYRYLHPVLHKEEKQHL [K11Y]	3.07
RAQMIRNEYRQLHPVLHKEEKQHL [K11Q]	3.51
RAQMIRNEYRILHPVLHKEEKQHL [K11I]	2.94
RAQMIRNEYRMLHPVLHKEEKQHL [K11M]	3.35
RAQMIRNEYRALHPVLHKEEKQHL [K11A]	3.14
RAQMIRNEYRLLHPVLHKEEKQHL [K11L]	3.49
RAQMIRNEYRNLHPVLHKEEKQHL [K11N]	3.68
RAQMIRNEYRPLHPVLHKEEKQHL [K11P]	4.16
RAQMIRNEYRELHPVLHKEEKQHL [K11E]	4.15
RAQMIRNEYRDLHPVLHKEEKQHL [K11D]	4.29
RAQMIRNEYVKLHPVLHKEEKQHL [R10V]	3.73
RAQMIRNEYSKLHPVLHKEEKQHL [R10S]	3.71
RAQMIRNEYEKLHPVLHKEEKQHL [R10E]	4.09
RAQMIRNEYLKLHPVLHKEEKQHL [R10L]	3.38
RAQMIRNEYTKLHPVLHKEEKQHL [R10T]	3.85
RAQMIRNEYAKLHPVLHKEEKQHL [R10A]	3.08
RAQMIRNEYHKLHPVLHKEEKQHL [R10H]	3.39
RAQMIRNEYWKLHPVLHKEEKQHL [R10W]	2.99
RAQMIRNEYYKLHPVLHKEEKQHL [R10Y]	3.31
RAQMIRNEYDKLHPVLHKEEKQHL [R10D]	4.21
RAQMIRNEYGKLHPVLHKEEKQHL [R10G]	3.26

Variant	protein stability index
RAQMIRNEYIKLHPVLHKEEKQHL [R10I]	3.75
RAQMIRNEYMKLHPVLHKEEKQHL [R10M]	2.91
RAQMIRNEYQKLHPVLHKEEKQHL [R10Q]	3.84
RAQMIRNEYKKLHPVLHKEEKQHL [R10K]	2.91
RAQMIRNEYCKLHPVLHKEEKQHL [R10C]	3.19
RAQMIRNEYFKLHPVLHKEEKQHL [R10F]	3.4
RAQMIRNEYNKLHPVLHKEEKQHL [R10N]	3.66
RAQMIRNEYPKLHPVLHKEEKQHL [R10P]	3.76
RAQMIRNERRKLHPVLHKEEKQHL [Y9R]	3.84
RAQMIRNEWRKLHPVLHKEEKQHL [Y9W]	2.44
RAQMIRNEERKLHPVLHKEEKQHL [Y9E]	3.96
RAQMIRNEHRKLHPVLHKEEKQHL [Y9H]	4.12
RAQMIRNEPRKLHPVLHKEEKQHL [Y9P]	3.93
RAQMIRNEDRKLHPVLHKEEKQHL [Y9D]	4.24
RAQMIRNEARKLHPVLHKEEKQHL [Y9A]	4.04
RAQMIRNELRKLHPVLHKEEKQHL [Y9L]	3.25
RAQMIRNEQRKLHPVLHKEEKQHL [Y9Q]	4.31
RAQMIRNESRKLHPVLHKEEKQHL [Y9S]	3.46
RAQMIRNETRKLHPVLHKEEKQHL [Y9T]	4.08
RAQMIRNENRKLHPVLHKEEKQHL [Y9N]	3.79
RAQMIRNECRKLHPVLHKEEKQHL [Y9C]	3.79
RAQMIRNEVRKLHPVLHKEEKQHL [Y9V]	3.91
RAQMIRNEKRKLHPVLHKEEKQHL [Y9K]	3.65
RAQMIRNEFRKLHPVLHKEEKQHL [Y9F]	3.35

Variant	protein stability index
RAQMIRNEIRKLHPVLHKEEKQHL [Y9I]	3.03
RAQMIRNEGRKLHPVLHKEEKQHL [Y9G]	3.96
RAQMIRNEMRKLHPVLHKEEKQHL [Y9M]	3.97
RAQRIRNEYRKLHPVLHKEEKQHL [M4R]	3.11
RAQDIRNEYRKLHPVLHKEEKQHL [M4D]	3.53
RAQKIRNEYRKLHPVLHKEEKQHL [M4K]	3.2
RAQYIRNEYRKLHPVLHKEEKQHL [M4Y]	2.74
RAQNIRNEYRKLHPVLHKEEKQHL [M4N]	3.45
RAQSIRNEYRKLHPVLHKEEKQHL [M4S]	3.07
RAQHIRNEYRKLHPVLHKEEKQHL [M4H]	3.46
RAQQIRNEYRKLHPVLHKEEKQHL [M4Q]	2.8
RAQIIRNEYRKLHPVLHKEEKQHL [M4I]	2.6
RAQCIRNEYRKLHPVLHKEEKQHL [M4C]	3.23
RAQTIRNEYRKLHPVLHKEEKQHL [M4T]	3.69
RAQGIRNEYRKLHPVLHKEEKQHL [M4G]	3.66
RAQWIRNEYRKLHPVLHKEEKQHL [M4W]	2.44
RAQPIRNEYRKLHPVLHKEEKQHL [M4P]	3.73
RAQVIRNEYRKLHPVLHKEEKQHL [M4V]	3.39
RAQFIRNEYRKLHPVLHKEEKQHL [M4F]	2.61
RAQAIRNEYRKLHPVLHKEEKQHL [M4A]	3.49
RAQLIRNEYRKLHPVLHKEEKQHL [M4L]	3.2
RAQEIRNEYRKLHPVLHKEEKQHL [M4E]	3.86

— the supplement of paper PMC10567573
